Among the data in article PMC3061058 (Nucleic Acids Research, 2010) are Kd, Km and kcat values, retold here.

In series [1] the target is T1, rgyr (reverse gyrase, full-length wild type) (Thermotoga maritima, UniProt O51934).
T1 sequence (O51934 1-1104): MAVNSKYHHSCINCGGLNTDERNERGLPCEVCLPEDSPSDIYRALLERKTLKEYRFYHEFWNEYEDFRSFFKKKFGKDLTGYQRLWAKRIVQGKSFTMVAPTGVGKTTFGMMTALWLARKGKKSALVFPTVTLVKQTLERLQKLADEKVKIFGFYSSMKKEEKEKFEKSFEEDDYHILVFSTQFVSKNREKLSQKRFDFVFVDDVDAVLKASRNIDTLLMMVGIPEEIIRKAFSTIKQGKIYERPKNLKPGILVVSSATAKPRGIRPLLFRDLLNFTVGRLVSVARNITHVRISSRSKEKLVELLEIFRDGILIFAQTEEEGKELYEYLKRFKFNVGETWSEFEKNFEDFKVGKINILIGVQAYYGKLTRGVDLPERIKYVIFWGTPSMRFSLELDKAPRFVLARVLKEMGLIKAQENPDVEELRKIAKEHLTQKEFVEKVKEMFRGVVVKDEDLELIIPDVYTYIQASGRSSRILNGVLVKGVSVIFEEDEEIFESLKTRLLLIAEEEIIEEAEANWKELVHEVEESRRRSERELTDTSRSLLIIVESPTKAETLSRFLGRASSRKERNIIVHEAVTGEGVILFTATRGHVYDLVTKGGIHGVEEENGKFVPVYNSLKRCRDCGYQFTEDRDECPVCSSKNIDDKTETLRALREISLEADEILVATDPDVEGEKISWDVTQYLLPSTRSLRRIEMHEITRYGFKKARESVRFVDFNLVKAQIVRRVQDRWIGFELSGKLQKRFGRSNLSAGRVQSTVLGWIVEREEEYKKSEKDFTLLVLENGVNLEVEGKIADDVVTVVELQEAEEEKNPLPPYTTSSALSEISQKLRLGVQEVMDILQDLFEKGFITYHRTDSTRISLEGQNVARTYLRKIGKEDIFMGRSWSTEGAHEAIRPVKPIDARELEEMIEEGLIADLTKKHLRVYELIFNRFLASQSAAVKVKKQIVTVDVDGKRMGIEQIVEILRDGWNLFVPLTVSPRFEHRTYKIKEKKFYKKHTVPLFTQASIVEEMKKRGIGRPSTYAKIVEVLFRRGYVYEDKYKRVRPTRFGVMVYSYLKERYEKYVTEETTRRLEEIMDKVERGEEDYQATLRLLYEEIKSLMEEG
The series is described as follows: fluorescence equilibrium titration. It is filed as binding.

The target in series [2] is rgyr_Δlatch (reverse gyrase lacking the latch region) (Thermotoga maritima, UniProt O51934, DEL389-459/INS388G). The experiment in a line: biochemical.
Substrate in series [3]: Nc1ncnc2c1ncn2[C@@H]1O[C@H](COP(=O)(O)OP(=O)(O)OP(=O)(O)O)[C@@H](O)[C@H]1O
The experiment in a line: purified protein. Particulars: no DNA, pH 7.5, 10 mM MgCl2, 0.15 M NaCl.

Series [4] addresses T2, rgyr_Δlatch (Thermotoga maritima, UniProt O51934 1-1104, del389-459).
T2 sequence: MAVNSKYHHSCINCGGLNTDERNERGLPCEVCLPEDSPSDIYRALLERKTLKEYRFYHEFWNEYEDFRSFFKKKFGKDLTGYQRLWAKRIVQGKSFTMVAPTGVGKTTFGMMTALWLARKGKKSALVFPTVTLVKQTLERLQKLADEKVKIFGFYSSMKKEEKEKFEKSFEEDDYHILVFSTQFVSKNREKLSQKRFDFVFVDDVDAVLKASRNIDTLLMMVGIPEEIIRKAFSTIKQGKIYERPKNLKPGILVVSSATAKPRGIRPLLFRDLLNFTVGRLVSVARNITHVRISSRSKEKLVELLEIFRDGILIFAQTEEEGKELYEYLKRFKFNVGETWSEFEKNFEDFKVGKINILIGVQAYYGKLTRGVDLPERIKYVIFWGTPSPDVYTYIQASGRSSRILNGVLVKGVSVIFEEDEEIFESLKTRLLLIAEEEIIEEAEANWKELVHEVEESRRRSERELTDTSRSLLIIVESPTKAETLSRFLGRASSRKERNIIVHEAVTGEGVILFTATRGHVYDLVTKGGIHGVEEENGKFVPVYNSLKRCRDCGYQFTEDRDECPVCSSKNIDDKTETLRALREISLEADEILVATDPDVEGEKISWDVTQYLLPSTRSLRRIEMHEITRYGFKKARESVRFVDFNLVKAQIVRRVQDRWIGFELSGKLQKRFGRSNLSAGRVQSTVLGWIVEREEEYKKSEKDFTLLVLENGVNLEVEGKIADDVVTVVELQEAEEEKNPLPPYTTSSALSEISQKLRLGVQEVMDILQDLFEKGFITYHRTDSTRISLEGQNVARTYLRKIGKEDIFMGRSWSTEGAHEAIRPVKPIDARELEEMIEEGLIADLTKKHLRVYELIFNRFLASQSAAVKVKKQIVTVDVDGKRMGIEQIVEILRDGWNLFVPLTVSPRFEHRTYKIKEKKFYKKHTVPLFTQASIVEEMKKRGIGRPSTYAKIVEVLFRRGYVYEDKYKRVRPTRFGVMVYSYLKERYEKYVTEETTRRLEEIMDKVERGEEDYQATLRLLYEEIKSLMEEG
The series is described as follows: fluorescence anisotropy.

For series [5], the target named is T3, rgyr_hel_Δlatch (Thermotoga maritima, UniProt O51934 59-388+=G+460-541, internal_change).
T3 sequence: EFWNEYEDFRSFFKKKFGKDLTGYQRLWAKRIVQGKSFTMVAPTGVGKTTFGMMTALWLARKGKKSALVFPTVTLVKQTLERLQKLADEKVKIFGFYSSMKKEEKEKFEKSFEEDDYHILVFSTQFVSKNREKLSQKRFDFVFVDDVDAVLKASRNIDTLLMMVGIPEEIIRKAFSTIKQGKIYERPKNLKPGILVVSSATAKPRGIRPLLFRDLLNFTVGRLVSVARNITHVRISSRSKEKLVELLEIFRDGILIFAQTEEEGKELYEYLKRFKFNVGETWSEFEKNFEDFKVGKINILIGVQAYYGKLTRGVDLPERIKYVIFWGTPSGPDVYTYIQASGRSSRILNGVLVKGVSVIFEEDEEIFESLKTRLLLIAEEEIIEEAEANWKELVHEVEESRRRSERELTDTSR
The series is described as follows: fluorescence anisotropy.

In series [6] the target is T4, isolated latch (H3) (Thermotoga maritima, UniProt O51934 388-459).
T4 sequence: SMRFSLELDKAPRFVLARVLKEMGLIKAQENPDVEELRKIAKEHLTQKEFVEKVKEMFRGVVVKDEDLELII
The experiment in a line: fluorescence anisotropy.

In series [7] the target is T2, rgyr_Δlatch. The series is described as follows: fluorescence anisotropy. This is another data set of the same source.

Where two headings read alike, the source gives them in different places.

`Nc1ncnc2c1ncn2[C@@H]1O[C@H](COP(=O)(O)OP(=O)(O)NP(=O)(O)O)[C@@H](O)[C@H]1O` [ADPNP]: the dissociation constant Kd in series [1] came out at 10 ± 0.8 µM; in series [2] it was 4.7 ± 0.8 µM.

B1: rgyr_Δlatch (reverse gyrase lacking the latch region) (Thermotoga maritima MSB8; DEL389-459/INS388G) (protein)
chain: MAVNSKYHHSCINCGGLNTDERNERGLPCEVCLPEDSPSDIYRALLERKTLKEYRFYHEFWNEYEDFRSFFKKKFGKDLTGYQRLWAKRIVQGKSFTMVAPTGVGKTTFGMMTALWLARKGKKSALVFPTVTLVKQTLERLQKLADEKVKIFGFYSSMKKEEKEKFEKSFEEDDYHILVFSTQFVSKNREKLSQKRFDFVFVDDVDAVLKASRNIDTLLMMVGIPEEIIRKAFSTIKQGKIYERPKNLKPGILVVSSATAKPRGIRPLLFRDLLNFTVGRLVSVARNITHVRISSRSKEKLVELLEIFRDGILIFAQTEEEGKELYEYLKRFKFNVGETWSEFEKNFEDFKVGKINILIGVQAYYGKLTRGVDLPERIKYVIFWGTPSGPDVYTYIQASGRSSRILNGVLVKGVSVIFEEDEEIFESLKTRLLLIAEEEIIEEAEANWKELVHEVEESRRRSERELTDTSRSLLIIVESPTKAETLSRFLGRASSRKERNIIVHEAVTGEGVILFTATRGHVYDLVTKGGIHGVEEENGKFVPVYNSLKRCRDCGYQFTEDRDECPVCSSKNIDDKTETLRALREISLEADEILVATDPDVEGEKISWDVTQYLLPSTRSLRRIEMHEITRYGFKKARESVRFVDFNLVKAQIVRRVQDRWIGFELSGKLQKRFGRSNLSAGRVQSTVLGWIVEREEEYKKSEKDFTLLVLENGVNLEVEGKIADDVVTVVELQEAEEEKNPLPPYTTSSALSEISQKLRLGVQEVMDILQDLFEKGFITYHRTDSTRISLEGQNVARTYLRKIGKEDIFMGRSWSTEGAHEAIRPVKPIDARELEEMIEEGLIADLTKKHLRVYELIFNRFLASQSAAVKVKKQIVTVDVDGKRMGIEQIVEILRDGWNLFVPLTVSPRFEHRTYKIKEKKFYKKHTVPLFTQASIVEEMKKRGIGRPSTYAKIVEVLFRRGYVYEDKYKRVRPTRFGVMVYSYLKERYEKYVTEETTRRLEEIMDKVERGEEDYQATLRLLYEEIKSLMEEG
For B1, in series [3], the Km turned out to be 26.5 ± 3.5 µM and the kcat was 0.018 s⁻¹.

B2: rgyr_hel_Δlatch (helicase-like domain lacking the latch) (Thermotoga maritima MSB8; DEL389-459/INS388G) (protein)
chain: T3 sequence
For B2, in series [3], the Km was 67 ± 18 µM and the catalytic constant (kcat) amounted to 0.02 s⁻¹.

B3: 60 b ssDNA (ssDNA)
DNA: AAGCCAAGCTTCTAGAGTCAGCCCGTGATATTCATTACTTCTTATCCTAGGATCCCCGTT
As for B3, the equilibrium dissociation constant (Kd) is 0.033 ± 0.077 µM in series [4], 0.42 ± 0.07 µM in series [5] and 64 ± 29 µM in series [6].

B4: 60 bp dsDNA (dsDNA)
DNA 1: B3 DNA
DNA 2: AACGGGGATCCTAGGATAAGAAGTAATGAATATCACGGGCTGACTCTAGAAGCTTGGCTT
Take B4: the Kd came out at 21 ± 5 µM in series [5], 78 ± 39 µM in series [6] and 0.096 ± 0.019 µM in series [7].
